Series [1] concerns DNA demethylase (DNA dMTase) purified from A549 nuclear extract (Homo sapiens). The note with it: Km, 37 C, buffer L.
Series [2] shares this test system. As to the kind of experiment: inhibition. As to conditions: 5mC at CpG; oligonucleotide sequence only as image; preparation of enzyme not stated.

Read-outs that look alike come from different tables or passages of the source.

Broadly, the Ki is a dissociation constant, usually derived from enzyme kinetics or from competition with a known ligand. Higher therefore signals weaker binding.

For the substance “SssI-methylated pBluescript SK(+) plasmid”, in series [1] (5mC at all CpG, Vmax 40.42 pmol/h), the activity came out at 3.3 nM. Turning to fully methylated poly[mdCpdG]n, the activity in series [1] (5mC at all C of CpG, Vmax 340 pmol/h) was found to be 2.5 nM. For the substance hemimethylated [dCpdG]n*[mdCpdG]n, in series [1] (5mC on one strand, Vmax 402 pmol/h), the activity amounted to 6 nM.

The substance “double stranded CmG oligonucleotide inhibitor” registered a Ki in series [2] of 50 nM.

Source of the values: US7098012.
